The values that follow come from PMC8274241.

Read-outs that look alike come from different tables or passages of the source.

What all share (test): cryo-EM
For data set [1], the target named is T1, LshCas13a (Leptotrichia shahii, UniProt P0DOC6 1-1389).
T1 sequence: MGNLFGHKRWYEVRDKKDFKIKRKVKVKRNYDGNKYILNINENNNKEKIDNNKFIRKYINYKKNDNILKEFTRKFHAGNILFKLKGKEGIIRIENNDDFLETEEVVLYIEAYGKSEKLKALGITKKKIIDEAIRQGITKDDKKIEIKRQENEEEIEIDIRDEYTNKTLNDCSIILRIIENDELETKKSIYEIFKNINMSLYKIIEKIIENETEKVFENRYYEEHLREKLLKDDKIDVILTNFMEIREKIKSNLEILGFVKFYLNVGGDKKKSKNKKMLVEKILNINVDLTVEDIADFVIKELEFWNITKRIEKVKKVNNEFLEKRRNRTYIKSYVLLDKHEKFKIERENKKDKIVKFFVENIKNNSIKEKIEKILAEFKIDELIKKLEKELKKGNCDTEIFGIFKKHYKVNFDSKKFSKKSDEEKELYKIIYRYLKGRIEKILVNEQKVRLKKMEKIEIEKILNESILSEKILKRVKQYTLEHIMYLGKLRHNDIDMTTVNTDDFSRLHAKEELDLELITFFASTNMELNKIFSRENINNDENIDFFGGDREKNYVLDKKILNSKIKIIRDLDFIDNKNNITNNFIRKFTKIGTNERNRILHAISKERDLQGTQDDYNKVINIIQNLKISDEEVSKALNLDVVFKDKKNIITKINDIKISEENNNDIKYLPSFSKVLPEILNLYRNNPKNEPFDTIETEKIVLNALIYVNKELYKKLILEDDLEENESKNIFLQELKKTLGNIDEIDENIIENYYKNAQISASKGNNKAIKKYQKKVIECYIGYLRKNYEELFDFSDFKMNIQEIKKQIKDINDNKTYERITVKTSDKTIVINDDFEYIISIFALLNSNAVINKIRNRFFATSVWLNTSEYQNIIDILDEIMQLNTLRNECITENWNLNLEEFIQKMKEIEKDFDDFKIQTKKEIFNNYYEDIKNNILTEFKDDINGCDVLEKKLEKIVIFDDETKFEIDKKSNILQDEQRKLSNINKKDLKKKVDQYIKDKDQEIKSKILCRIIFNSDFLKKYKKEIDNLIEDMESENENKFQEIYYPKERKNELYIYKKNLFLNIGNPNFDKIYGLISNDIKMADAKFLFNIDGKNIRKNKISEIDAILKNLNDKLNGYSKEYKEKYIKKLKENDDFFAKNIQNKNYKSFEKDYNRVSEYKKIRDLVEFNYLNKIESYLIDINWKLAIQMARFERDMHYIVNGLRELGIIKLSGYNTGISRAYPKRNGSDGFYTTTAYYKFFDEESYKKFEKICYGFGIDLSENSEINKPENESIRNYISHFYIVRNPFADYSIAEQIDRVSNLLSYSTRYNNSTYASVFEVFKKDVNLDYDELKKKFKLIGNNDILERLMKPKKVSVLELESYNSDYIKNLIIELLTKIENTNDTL

For data set [2], the target named is T1, LshCas13a. The source holds these as a separate data set.
Data set [3] addresses T1, LshCas13a. This is another data set of the same source.

B1: Lsh crRNA (56-nt as named) + RNA6 (8-nt anti-tag) (mixed)
RNA 1: GGCCACCCCAAUAUCGAAGGGGACUAAAACUAGAUUGCUGUUCUACCAAGUAAUCCAU
RNA 2: GAUGGAUUACUUGGUAGAACAGCAAUCUAGUUUUAGU
In the case of B1, the binding result with LshCas13a [1] is given as “binds”.

B2: Lsh crRNA + RNA4 (no anti-tag) (mixed)
RNA 1: GGCCACCCCAAUAUCGAAGGGGACUAAAACUAGAUUGCUGUUCUACCAAGUAAUCCAU
RNA 2: GAUGGAUUACUUGGUAGAACAGCAAUCUACAAAAUCA
In the case of B2, in the data set with LshCas13a [2], the binding result is “binds”.

B3: Lsh crRNA alone (structured_RNA)
RNA: GGCCACCCCAAUAUCGAAGGGGACUAAAACUAGAUUGCUGUUCUACCAAGUAAUCCAU
Consider B3, for which the binding result in the data set with LshCas13a [3] is “binds”.
